From publication PMC9570017, “Unorthodox PCNA Binding by Chromatin Assembly Factor 1” (International Journal of Molecular Sciences, 2022)
“Also recorded” adds a separate entry of the source.

Legend:
[1] = system: PCNA; test: Crystal model of p150 PIP bound to PCNA; type: binding, human; details: synthetic 20-amino acid peptide, crystals at pH 5, resolution 46.2–2.4 Å; only RFF residues modelled; model could not be refined further
Method: In order to better understand the molecular basis of CAF-1 binding to PCNA, we determined the crystal model of a complex between a synthetic peptide encompassing the p150 PIP and PCNA. The crystal model was solved using molecular replacement from a previously published PCNA structure (Table 1 and Materials and Methods). PCNA samples were incubated with a 20-amino acid PIP derived from CAF-1 p150. The PIP used for crystallization, […] (PIP residues in italics), spanned the entire PIP region.
A CAF-1 p150 synthetic peptide with the sequence […] was synthesized at the University of Cambridge in-house protein and nucleic acid facility (PNAC). For use in crystallization trials, the synthetic peptide was dissolved in demineralized water to a concentration of 23 mM. Initial crystallization conditions were further refined and optimized with the help of the PACT suite (Qiagen) and Additive Screen (Hampton Research), which contain multiple reagent libraries that enhance the solubility and crystallization of biological macromolecules. […]
The eluate was subsequently purified with a Superdex™ 200 gel filtration column (GE Healthcare) in gel filtration buffer 20 mM Tris pH 7.5, 150 mM NaCl, 1 mM DTT. The fractions corresponding to PCNA homotrimer were pooled, concentrated with an amicon concentrator with 3 kDa MWCO, quantified using absorbance at A280 nm, and stored at - […]

[2] = system: DNA replication-coupled nucleosome assembly (S100 extract from human HEK-293 cells); test: Replication-dependent nucleosome assembly assay (SV40 DNA replication, S100 extract); type: biochemical; details: increasing amounts of in vitro translated p150 (rCAF-1: positive control), 45 min + 45 min at 37 °C, autoradiography
Excerpt: We next sought to compare the activities of CAF-1 p150, wild-type, and the R426D mutant in a replication-coupled chromatin assembly assay. As a first step to performing this assay, we expressed CAF-1 p150 wild-type and the R426D mutant in a rabbit reticulocyte lysate coupled transcription and translation system and labelled the proteins with [^35S]-methionine. […] In the replication coupled chromatin assembly system, an S100 extract from cultured human HEK-293 cells provides all the cellular DNA replication enzymes and histones but lacks CAF-1 p150 [37]. To this extract, a plasmid containing an SV40 origin of replication and the viral replication protein, SV40 large T antigen, were added to support SV40 DNA replication. Radiolabeled dATP was also added to visualize the replication products by autoradiography.
In contrast, when the recombinant CAF1 protein (p150, p60, p48) or the p150 subunit alone are added, they bind to histones in the S100 extract and promote nucleosome assembly coupled with DNA replication. DNA topoisomerase enzyme I, which is present in the S100 extract (and further supplemented in these assays to ensure sufficient levels), removes the positive supercoiling in the linker DNA that connects nucleosomes, leaving negative supercoiling due to DNA wrapping around histone octamers (evident upon subsequent removal of the histones and electrophoresis).
Replication reactions were assembled as previously reported. […]
The reactions were extracted using phenol, chloroform, and isoamyl alcohol (25:24:1) and the DNA was then precipitated with sodium acetate and ethanol. […] The products of replication were analyzed using a native 1.25% agarose gel in 1X TAE buffer with 1 mM MgCl2, without the addition of ethidium bromide. […] The gel was subsequently imaged and analyzed using a phosphor imager (Typhoon FLA 7000) to visualize the replicated DNA.

Molecule | binding mode to PCNA in crystal model [1] | supercoiling of replicated DNA / nucleosome assembly [2] | supercoiling of replicated DNA / nucleosome assembly ([2]; listed as CAF-1 R426D mutant)
IKAEKAEITRFFQKPKTPQA [CAF-1 p150 PIP] | one CAF-1 p150 PIP bound to each PCNA monomer; also recorded: forms a cation-π interaction with Tyr 250 of PCNA |  | 
wild-type CAF-1 p150: full-length mouse CAF-1 p150 expressed in rabbit reticulocyte lysate (protein, [35S]-methionine labelled) MLEEPEAATRTAAAVDCKDRPGFPVKRLIQARLPFKRLNLVPKEKVEEDTSPKAAVESKVPDLQLSLGTFESQCHTGSHVGLSTKLVGGQGPIDSFLRATIKPVPSVVIIDLTENCSDIPDSPEGHSELSPDTAGVVTTVEGAAKQQEHSAAELCLLETPSDITCHMEEEPGSPGDPKRTGDCQAGSLQSCPELTPGSRTCPTKELSSWSKAGDLLFIEKVPVVVLEDILATKPSIASLPMMSLDRSVTSESEILESCPEDDSILSHSSTNSSSPTSSPEGPSTPPEHRGGRSSPSTPACRVAKNFVKGSTEKGRSKLHRDREQQREEKEKLREEIRRAKEEARKKKEEEKELKEKERREKREKDEKEKAEKQRLKEEKRKERQEALEAKLEEKRKKEEEKRLREEEKRLREEEKRIKAEKAEITRFFQKPKTPQAPKTLAGSCGKFAPFEIKEHMVLAPRCRAALDQDLCDQLDQLLQQQSVASTFLSDLKSRLPLRSGPTRVCGHDTDIMNRDVVIVESSKVDGVSERKKFGRMKLLQFSENHRPAYWGTWNKKTAIIRPRNPWAQDKDLLDYEVDSDDEWEEEEPGESLSHSEGDEDDDVGEDEDEDDGFFVPHGYLSEDEGVTEECADPENHKVHQKLKAKEWDELLAKGKRFRVLQPVHVGCVWASEAANCTSSDLKLLQQFTACLLDVASPDEPEPGASRREKRDQHILAQLLPLLHGNVNGSKVIIHEFQEQCRRGLLTLPSPTPHLQMPNLEDAVAVPSKARLKRLISENSAYEKRPNFRMCWYVHPEVLKSFGQECLPVPCQWTYITTMPSAPREDSGSASTEGPGQSTPMLLKRKPAATMCITQFMKKRRYDGQVGSGDMDGFQADTEEDEEDDTDCMIIDVPDVGSDVSEAPIPAPTLCK |  | the replication products were supercoiled | 
R426D mutant: full-length mouse CAF-1 p150 with R426D, expressed in rabbit reticulocyte lysate (protein, [35S]-methionine labelled) MLEEPEAATRTAAAVDCKDRPGFPVKRLIQARLPFKRLNLVPKEKVEEDTSPKAAVESKVPDLQLSLGTFESQCHTGSHVGLSTKLVGGQGPIDSFLRATIKPVPSVVIIDLTENCSDIPDSPEGHSELSPDTAGVVTTVEGAAKQQEHSAAELCLLETPSDITCHMEEEPGSPGDPKRTGDCQAGSLQSCPELTPGSRTCPTKELSSWSKAGDLLFIEKVPVVVLEDILATKPSIASLPMMSLDRSVTSESEILESCPEDDSILSHSSTNSSSPTSSPEGPSTPPEHRGGRSSPSTPACRVAKNFVKGSTEKGRSKLHRDREQQREEKEKLREEIRRAKEEARKKKEEEKELKEKERREKREKDEKEKAEKQRLKEEKRKERQEALEAKLEEKRKKEEEKRLREEEKRLREEEKRIKAEKAEITDFFQKPKTPQAPKTLAGSCGKFAPFEIKEHMVLAPRCRAALDQDLCDQLDQLLQQQSVASTFLSDLKSRLPLRSGPTRVCGHDTDIMNRDVVIVESSKVDGVSERKKFGRMKLLQFSENHRPAYWGTWNKKTAIIRPRNPWAQDKDLLDYEVDSDDEWEEEEPGESLSHSEGDEDDDVGEDEDEDDGFFVPHGYLSEDEGVTEECADPENHKVHQKLKAKEWDELLAKGKRFRVLQPVHVGCVWASEAANCTSSDLKLLQQFTACLLDVASPDEPEPGASRREKRDQHILAQLLPLLHGNVNGSKVIIHEFQEQCRRGLLTLPSPTPHLQMPNLEDAVAVPSKARLKRLISENSAYEKRPNFRMCWYVHPEVLKSFGQECLPVPCQWTYITTMPSAPREDSGSASTEGPGQSTPMLLKRKPAATMCITQFMKKRRYDGQVGSGDMDGFQADTEEDEEDDTDCMIIDVPDVGSDVSEAPIPAPTLCK |  | much less supercoiling was observed | deficient in nucleosome assembly
